{"source": "patent US20240342305A1", "about": "(published 2024)", "binders": {"B1": {"name": "single chain antibody P1B12E (phage-displayed scFv) (scFv)", "scFv": "QVQLVESGAEVKKPGASVKVSCKASGGTFSSYAISWVRQAPGQGLEWMGGIIPIFGTANYAQKFQGRVTITADESTSTAYMELSSLRSEDTAVYYCAKSPFSGTPGEYWGRGTLVTVSSGGGGSGGGGSGGGGSEIVLTQSPGTLSLSPGERATLSCRASQSVSSNYLAWYQQKPGQAPRLLIYGASRRATGIPDRFSGSGSGTDFTLTISRVEPEDFAVYHCQQYGASPKTFGQGTKLEIKR", "notes": "Tested as single phage (M13, phagemid pCantab 5E) culture supernatant in ELISA; the phage coat fusion is not described"}, "B2": {"name": "chimeric antigen receptor P7D4-BBZ (P7D4 scFv-CD8-CD137-CD3 zeta), on T cells (other)", "chain": "QVQLQESGGGLVQPGRSLRLSCAASGFTFSSYAMHWVRQAPGKGLEWVSAISGSGGSTYYADSVKGRFTISRDNSKNTLYLQMNSLRAEDTAVYYCAKDRRGSHADAFDVWGQGTLVTVSSGGGGSGGGGSGGGGSQSALTQPPSASGSPGQSVTISCTGTSSDVGGYNYVSWYQQYPGKAPKLLIYGNSNRPSGVPDRFSGSKSGTSASLAITGLQAEDGADYYCQSYDSSLRVVFGGGTKVTVLGTTTPAPRPPTPAPTIASQPLSLRPEACRPAAGGAVHTRGLDFACDIYIWAPLAGTCGVLLLSLVITLYCKRGRKKLLYIFKQPFMRPVQTTQEEDGCSCRFPEEEEGGCELRVKFSRSADAPAYKQGQNQLYNELNLGRREEYDVLDKRRGRDPEMGGKPRRKNPQEGLYNELQKDKMAEAYSEIGMKGERRRGKGHDGLYQGLSTATKDTYDALHMQALPPR", "notes": "Second generation CAR on human T cells; also called P7D4 scFv-BBZ"}, "B3": {"name": "single chain antibody P7D4 (phage-displayed scFv) (scFv)", "scFv": "QVQLQESGGGLVQPGRSLRLSCAASGFTFSSYAMHWVRQAPGKGLEWVSAISGSGGSTYYADSVKGRFTISRDNSKNTLYLQMNSLRAEDTAVYYCAKDRRGSHADAFDVWGQGTLVTVSSGGGGSGGGGSGGGGSQSALTQPPSASGSPGQSVTISCTGTSSDVGGYNYVSWYQQYPGKAPKLLIYGNSNRPSGVPDRFSGSKSGTSASLAITGLQAEDGADYYCQSYDSSLRVVFGGGTKVTVLG", "notes": "Tested as single phage (M13, phagemid pCantab 5E) culture supernatant in ELISA"}, "B4": {"name": "humanized antibody Y035 (antibody, V domains shown)", "VH": "EVQLVQSGAEVKKPGASVKVSCKASGYTFSDYEMHWVRQAPGQGLEWMGAIHPGSGDTAYNQRFKGRVTITADKSTSTAYMELSSLRSEDTAVYYCARFYSYAYWGQGTLVTVSA", "VL": "DIVMTQTPLSLPVTPGEPASISCRSSQSLVHSNGNTYLQWYLQKPGQSPQLLIYKVSNRFSGVPDRFSGSGSGTDFTLKISRVEAEDVGVYYCSQSIYVPYTFGQGTKLEIKR", "notes": "Whole antibody expressed in 293F from vectors pIH-hu12H (heavy) and pIK-hu12L (light), purified on Protein A, detected with goat anti-human antibody"}, "B5": {"name": "parental murine monoclonal antibody 5A5 (antibody, V domains shown)", "VH": "QVQLQQSGTELVRPGASVKLSCKALGYTFTDYEMHWVKQTPVHGLEWIGAIHPGSGDTAYNQRFKGKATLTADKSSSTAYMEYSSLTSEDSAVYYCTRFYSYAYWGQGTLVTVSA", "VL": "B4 VL with I2V, T14S, P15L, E17D, P18Q, Q50K, S70R, V88L, Y92F, Q105G", "notes": "Mouse hybridoma antibody purified from ascites on Protein G; also called mouse 5A5"}, "B6": {"name": "chimeric antigen receptor P7D4-δZ (P7D4 scFv-CD8-CD3δzeta), on T cells (other)", "chain": "QVQLQESGGGLVQPGRSLRLSCAASGFTFSSYAMHWVRQAPGKGLEWVSAISGSGGSTYYADSVKGRFTISRDNSKNTLYLQMNSLRAEDTAVYYCAKDRRGSHADAFDVWGQGTLVTVSSGGGGSGGGGSGGGGSQSALTQPPSASGSPGQSVTISCTGTSSDVGGYNYVSWYQQYPGKAPKLLIYGNSNRPSGVPDRFSGSKSGTSASLAITGLQAEDGADYYCQSYDSSLRVVFGGGTKVTVLGTTTPAPRPPTPAPTIASQPLSLRPEACRPAAGGAVHTRGLDFACDIYIWAPLAGTCGVLLLSLVITRVKFSRSADAPA", "notes": "Chimeric antigen receptor on lentivirus-infected human T cells; negative control without ITAM; also called P7D4-8Z; P7D4 scFv-δZ"}}, "key": {"[1]": {"molecular_target": "T1, BSA (bovine serum albumin), negative control protein (bovine, UniProt P02769 25-607)", "T1 construct": "Coated as negative control in the single phage ELISA", "T1 sequence (P02769 25-607 limits assumed)": "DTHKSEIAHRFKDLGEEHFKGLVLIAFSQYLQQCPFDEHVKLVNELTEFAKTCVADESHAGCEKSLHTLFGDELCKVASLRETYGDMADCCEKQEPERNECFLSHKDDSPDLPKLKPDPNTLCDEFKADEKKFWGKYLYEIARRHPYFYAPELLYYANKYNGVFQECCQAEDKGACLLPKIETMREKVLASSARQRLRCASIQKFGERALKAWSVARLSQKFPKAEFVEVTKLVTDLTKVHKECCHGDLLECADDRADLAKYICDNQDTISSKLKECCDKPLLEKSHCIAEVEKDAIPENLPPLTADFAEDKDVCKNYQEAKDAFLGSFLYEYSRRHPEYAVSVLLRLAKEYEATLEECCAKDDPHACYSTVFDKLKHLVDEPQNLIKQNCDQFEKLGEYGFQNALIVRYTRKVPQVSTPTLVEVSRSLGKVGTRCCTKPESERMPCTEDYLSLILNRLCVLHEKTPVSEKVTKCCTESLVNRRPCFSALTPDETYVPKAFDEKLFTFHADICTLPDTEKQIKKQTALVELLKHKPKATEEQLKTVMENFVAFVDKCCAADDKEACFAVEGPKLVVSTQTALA", "experiment": "single phage ELISA, BSA coated 100 ng/well", "protocol": "(§1) 96 clones were randomly selected in the clones obtained from the fourth round of screening and their binding capability to human GPC3 was analyzed by single phage ELISA (enzyme-linked immunosorbent assay). For this purpose, each single colony was inoculated in 300 μl of 2×YT/ampicillin medium (containing 2% glucose) in a 96-well deep-well plate and cultured with shaking at 37° C. and 250 rpm for 16 hours. 20 μl of culture was inoculated into 500 μl of 2×YT/ampicillin medium (containing 0.1% glucose) and shaken at 37° C. and 250 rpm for 1.5 hours. To prepare the helper phage solution, 75 μl of M13KO7 (titer of 3×10¹² pfu/ml) was taken and mixed into 15 ml of 2×YT medium and added into a culture plate at 50 μl/well, and incubated at 37° C. and 150 rpm for 30 minutes. And then prepared kanamycin solution (180 μl of 50 mg/ml kanamycin was taken and added into 15 ml of 2×YT medium) was added at 50 μl/well and incubated with shaking for 16 hours at 37° C. and 250 rpm. Finally, cells were precipitated by centrifugation (30 mins, 5000×g, 4° C.) and the supernatant was transferred to a new 96-well deep-well plate.\n(§2) For single phage ELISA, 100 ng/well of antigen GPC3 and negative control protein BSA (100 μl/well) were used in a 96-well MediSorp ELISA plate (purchased from Nunc) and coated overnight at 4° C. […] Extinction values were measured at 450 nm with an enzyme-linked immunosorbent (Bio-Rad)."}, "[2]": {"molecular_target": "T2, human GPC3 recombinant protein (purchased from Shanghai Rui Jin Biotechnology Co., Ltd.) (human, UniProt P51654 25-559, limits assumed)", "T2 construct": "Bought recombinant protein; also called huGPC3; antigen GPC3", "experiment": "single phage ELISA, GPC3 coated 100 ng/well", "protocol": "as §1, §2"}, "[3]": {"molecular_target": "GPC3 expressed on hepatoma cells (HepG2, Huh-7, SK-Hep-1 GPC3) (human, UniProt P51654 25-554)", "experiment": "cell-based or functional assay"}, "[4]": {"molecular_target": "T3, His-tagged human GPC3 recombinant protein (purchased from Shanghai Rui Jin Biotech Co., Ltd.) (human, UniProt P51654 25-559, limits assumed)", "T3 construct": "Bought; construct not described; not shown: His tag", "experiment": "flow cytometry of CAR T cells stained with His-tagged human GPC3 (50 ug/ml), anti-His-tag antibody and FITC secondary", "protocol": "Infected CTL cells were detected by flow cytometry on day 8 of culture for the expression of different chimeric antigen receptors. FACS assays were performed using His-tagged human GPC3 recombinant protein (purchased from Shanghai Rui Jin Biotech Co., Ltd.); the cells were firstly incubated with the protein (50 ug/ml) for 1 hr, washed twice with D-PBS, and Anti-His-tag antibody (1:50 dilution, purchased from Shanghai Reagent Biotechnology Co., Ltd.) was added and incubated for 1 hr and then washed twice with D-PBS and then FITC labeled goat anti-mouse secondary antibody (Shanghai Kangcheng Biotechnology Co., Ltd.), incubated for 50 min, washed with D-PBS for three times, and tested by FACS. Uninfected T lymphocytes was used as a negative control, the positive rates of virus-infected T cells expressing different chimeric antigen receptors are shown in Table 4."}, "[5]": {"molecular_target": "T2, human GPC3 recombinant protein …", "experiment": "SPR Biacore T200, human GPC3 amine-coupled to CM5 (305 RU), antibody as analyte, multi-cycle kinetics, 25 °C", "protocol": "(§3) To quantitatively analyze the binding of antibody Y035 to antigen human GPC3, the affinity and kinetic parameters of antibody Y035 were measured by multi-cycle kinetic assay using Biacore T200 system (from GE). Antigen human GPC3 (purchased from Shanghai Rui-Jin Biotechnology Co., Ltd.) was coupled to carboxymethyl dextran surface of sensor chip CM5 through primary amino with NHS/EDC coupling according to the manufacturer's instructions, and the final amount of the conjugated ligand was 305RU. Kinetic measurements were performed in 1×HBS-EP+working buffer at 25° C., 30 μl/min, and regeneration condition was 10 mM Glycine-HCl (pH2.5), 10 μl/min for 25 seconds. In each round of the testing cycle, antibody Y035 of a certain concentration flowed over the chip surface. The interaction between the antibody and the antigen protein human GPC3 fixed on the chip caused the change of the molecular concentration on the surface of the sensor chip which was measured according to changes in SPR Signal and expressed in resonance units (RU). Time vs resonance unit (RU) was plotted and after RU value of the reference channel without fixed antigen was subtracted, the resulting sensorgram documents the entire reaction including the binding and dissociation processes. In different cycles of kinetic assay, the concentration of antibody Y035 was 6.25 nM, 12.5 nM, 25 nM, 50 nM and 100 nM, respectively. The resulting curves were evaluated using Biacore T200 evaluation software and the affinity KD values were calculated. Using the same method, the affinity and kinetic parameters of the parental murine monoclonal antibody 5A5 prior to humanization of Y035 were also assayed. The binding data of antibodies Y035 and 5A5 to human GPC3 proteins, respectively, are summarized in Table 2, and humanized antibody Y035 binds human GPC3 protein much better than mouse 5A5 after humanization."}, "[6]": {"molecular_target": "T2, human GPC3 recombinant protein …", "experiment": "SPR Biacore T200, human GPC3 amine-coupled to CM5, antibody as analyte, multi-cycle kinetics, 25 °C", "protocol": "as §3"}}, "note": "Where a chain is given by its changes, count along the chain named.", "data": [{"binder": "B1", "values": [{"measurement": "binding result", "setting": "[1]", "value": "no binding"}, {"measurement": "binding result", "setting": "[2]", "value": "binds"}]}, {"binder": "B2", "values": [{"measurement": "Cytotoxicity (%) on HepG2 cells, effector target ratio 1:1 (LDH release, 18 h)", "setting": "[3]", "value": 38.6, "unit": "%"}, {"measurement": "Cytotoxicity (%) on HepG2 cells, effector target ratio 1:3 (LDH release, 18 h)", "setting": "[3]", "value": 13.9, "unit": "%"}, {"measurement": "Cytotoxicity (%) on HepG2 cells, effector target ratio 3:1 (LDH release, 18 h)", "setting": "[3]", "value": 71.3, "unit": "%"}, {"measurement": "Cytotoxicity (%) on HuH-7 cells, effector target ratio 1:1 (LDH release, 18 h)", "setting": "[3]", "value": 32.2, "unit": "%"}, {"measurement": "Cytotoxicity (%) on HuH-7 cells, effector target ratio 1:3 (LDH release, 18 h)", "setting": "[3]", "value": 10.2, "unit": "%"}, {"measurement": "Cytotoxicity (%) on HuH-7 cells, effector target ratio 3:1 (LDH release, 18 h)", "setting": "[3]", "value": 69.2, "unit": "%"}, {"measurement": "Positive rate of T cells transfection", "setting": "[4]", "value": 53, "unit": "%"}]}, {"binder": "B3", "values": [{"measurement": "binding result", "setting": "[1]", "value": "no binding"}, {"measurement": "binding result", "setting": "[2]", "value": "binds"}]}, {"binder": "B4", "values": [{"measurement": "Kd", "setting": "[5]", "value": 63.4, "unit": "pM"}, {"measurement": "koff", "setting": "[5]", "value": "2.51e-05", "unit": "s⁻¹"}, {"measurement": "kon", "setting": "[5]", "value": 396000, "unit": "M⁻¹ s⁻¹"}]}, {"binder": "B5", "values": [{"measurement": "Kd", "setting": "[6]", "value": 81.9, "unit": "pM"}, {"measurement": "koff", "setting": "[6]", "value": "2.3e-05", "unit": "s⁻¹"}, {"measurement": "kon", "setting": "[6]", "value": 280000, "unit": "M⁻¹ s⁻¹"}]}, {"binder": "B6", "values": [{"measurement": "Cytotoxicity (%) on HepG2 cells, effector target ratio 1:1 (LDH release, 18 h); signalling-dead negative control CAR", "setting": "[3]", "value": 2.5, "unit": "%"}, {"measurement": "Cytotoxicity (%) on HepG2 cells, effector target ratio 1:3 (LDH release, 18 h); signalling-dead negative control CAR", "setting": "[3]", "value": 3.2, "unit": "%"}, {"measurement": "Cytotoxicity (%) on HepG2 cells, effector target ratio 3:1 (LDH release, 18 h); signalling-dead negative control CAR", "setting": "[3]", "value": 4.8, "unit": "%"}, {"measurement": "Cytotoxicity (%) on HuH-7 cells, effector target ratio 1:1 (LDH release, 18 h); signalling-dead negative control CAR", "setting": "[3]", "value": 1.3, "unit": "%"}, {"measurement": "Cytotoxicity (%) on HuH-7 cells, effector target ratio 1:3 (LDH release, 18 h); signalling-dead negative control CAR", "setting": "[3]", "value": 5.3, "unit": "%"}, {"measurement": "Cytotoxicity (%) on HuH-7 cells, effector target ratio 3:1 (LDH release, 18 h); signalling-dead negative control CAR", "setting": "[3]", "value": 3.2, "unit": "%"}, {"measurement": "Positive rate of T cells transfection", "setting": "[4]", "value": 59, "unit": "%"}]}]}
